# According to paper PMC10656745 (ACS synthetic biology, 2022):
# Biological target: the molecule itself
# Assay: native gel or EMSA
protein,measurement,value
"wild-type GstA (glutathione S-transferase, PP_1162) of Pseudomonas putida KT2440 (enzyme, UniProt Q88NP5 1-209, looked up) MSNPIKLYNFPKSGHAHRIELMLSLLNLPTELVFVDLAKGAHKQPDFLALNPFGQVPVIDDNGTVIADSNAILVYLAKKYDNGTWLPEEPAAAARVQRWLSVAAGPLAFGPAAARLVTVFGASFNTDEVISRAHTLLKVIDAELANTPFLTGSTPTIADIANYSYIAHAPEGNVSLEPYANVRNWLARIEALPRFVPMPRTVIGLQTHA",stoichiometry N,2
